The results in this text go back to patent US20110045007A1.

Bounds are passed on as bounds.

For one test, the target named is 2F8-HG F273A (human). Put plainly: non-covalent nano-electrospray mass spectrometry, 1 µM; self-association.
In the next test the target is 2F8-HG F273L (human). The description is as above.

B1: 2F8-HG F273A (antibody, part only; not given: 2F8 variable domains, not shown: a dimerising Fc or GST)
heavy, part: ASTKGPSVFPLAPCSRSTSESTAALGCLVKDYFPEPVTVSWNSGALTSGVHTFPAVLQSSGLYSLSSVVTVPSSSLGTKTYTCNVDHKPSNTKVDKRVAPEFLGGPSVFLFPPKPKDTLMISRTPEVTCVVVDVSQEDPEVQFNWYVDGVEVHNAKTKPREEQFNSTYRVVSVLTVLHQDWLNGKEYKCKVSNKGLPSSIEKTISKAKGQPREPQVYTLPPSQEEMTKNQVSLTCLVKGFYPSDIAVEWESNGQPENNYKTTPPVLDSDGSFALYSRLTVDKSRWQEGNVFSCSVMHEALHNHYTQKSLSLSLGK
B1 came in with a percentage molecules present as monomers in the test with 2F8-HG F273A (human) of over 80%.

B2: 2F8-HG F273L (antibody, part only; not given: 2F8 variable domains, not shown: a dimerising Fc or GST)
heavy, part: ASTKGPSVFPLAPCSRSTSESTAALGCLVKDYFPEPVTVSWNSGALTSGVHTFPAVLQSSGLYSLSSVVTVPSSSLGTKTYTCNVDHKPSNTKVDKRVAPEFLGGPSVFLFPPKPKDTLMISRTPEVTCVVVDVSQEDPEVQFNWYVDGVEVHNAKTKPREEQFNSTYRVVSVLTVLHQDWLNGKEYKCKVSNKGLPSSIEKTISKAKGQPREPQVYTLPPSQEEMTKNQVSLTCLVKGFYPSDIAVEWESNGQPENNYKTTPPVLDSDGSFLLYSRLTVDKSRWQEGNVFSCSVMHEALHNHYTQKSLSLSLGK
For the molecule B2, in the test with 2F8-HG F273L (human), the percentage molecules present as monomers was over 80%.
